Experimental data published in patent publication US20040203128A1 (GENSET S A, published 2004).

Target: GST protein (negative control, from pGEX2TK) (UniProt P08515 1-218 = GST)
Assay: solid phase overlay assay, 32P-labeled GST-PPP2R2C probe on blotted protein
Protocol: After 4.5 hr of incubation, the membrane was washed with Hyb75 buffer, 1 mM DTT, 1% (w/v) non-fat dry milk three times for 15 min at room temperature. The blots were analyzed by autoradiography.

GST protein (negative control, from pGEX2TK), sequence (P08515 whole entry): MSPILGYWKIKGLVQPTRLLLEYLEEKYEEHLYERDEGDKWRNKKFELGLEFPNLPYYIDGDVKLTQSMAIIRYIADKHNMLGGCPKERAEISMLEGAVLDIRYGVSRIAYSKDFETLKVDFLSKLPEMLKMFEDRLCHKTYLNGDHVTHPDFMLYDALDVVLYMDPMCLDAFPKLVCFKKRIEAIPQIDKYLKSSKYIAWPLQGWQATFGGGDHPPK

B1: GST-PPP2R2C radiolabeled recombinant protein (other)
chain: GEDTDTRKINHSFLRDHSYVTEADIISTVEFNHTGELLATGDKGGRVVIFQREPESKNAPHSQGDYDVYSTFQSHEPEFDYLKSLEIEEKINKIKWLPQQNAAHSLLSTNDKTIKLWKITERDKRPEGYNLKDEEGKLKDLSTVTSLQVPVLKPMDLMVEVSPRRIFANGHTYHINSISVNSDCETYMSADDLRINLWHLAITDRSFNIVDIKPANMEDLTEVITASEFHPHHCNLFVYSSSKGSLRLCDMPAAALCDKHSKLFEEPEDPSNRSFFSEIISSVSDVKFSHSDRYMLTRDYLTVKVWDLNMEARPIETYQVHDYLRSKLCSLYENDCIFDKFECAWNGSDSVIMTGAYNNFFRMFDRNTKRDVTLEASRESSKPRAVLKPRRVCVGGKRRRDDISVDSLDFTKKILHTAWHPAENIIAIAATNNLYIFQDKVNSDMH
modifications: 32P-phosphorylated in vitro with PKA and [32P]-γATP (site not stated)
notes: Insert is nucleotides 55-1540 of AF086924 (the bait construct starts at 52), so the first codon may be missing; also called PP2A/Bγ; protein encoded by pGEX-2TK-PPP2R2C; not shown: glutathione S-transferase encoded by the pGEX-2TK vector (Amersham Pharmacia Biotech)
binding result: no binding (tested: 100 ng, 10 ng and 0.1 ng of GST loaded)
